Results: US20210070882A1 (Hoffmann-La Roche, published 2021)
Like-named read-outs stand apart in the source and are kept apart here.

How the values were obtained:
Assay in all cases: cell-based or functional assay
human CD19 [1] = biological target: T1, human CD19 (human, UniProt P15391 20-556)
T1 sequence (looked up): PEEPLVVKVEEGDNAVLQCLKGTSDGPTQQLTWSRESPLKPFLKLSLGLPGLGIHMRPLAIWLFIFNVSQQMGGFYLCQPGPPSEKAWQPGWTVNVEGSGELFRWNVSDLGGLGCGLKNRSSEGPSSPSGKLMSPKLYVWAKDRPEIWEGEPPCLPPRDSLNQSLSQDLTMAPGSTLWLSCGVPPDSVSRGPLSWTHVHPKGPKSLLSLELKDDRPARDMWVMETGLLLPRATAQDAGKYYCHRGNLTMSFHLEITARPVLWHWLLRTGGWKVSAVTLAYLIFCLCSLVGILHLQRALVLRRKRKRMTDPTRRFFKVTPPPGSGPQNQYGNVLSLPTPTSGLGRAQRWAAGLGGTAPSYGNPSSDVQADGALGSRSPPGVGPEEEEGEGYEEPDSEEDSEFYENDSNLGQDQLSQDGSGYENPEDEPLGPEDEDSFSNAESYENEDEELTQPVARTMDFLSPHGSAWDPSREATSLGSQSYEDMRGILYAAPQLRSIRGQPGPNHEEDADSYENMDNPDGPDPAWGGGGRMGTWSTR

human CD19 [2] = biological target: T1, human CD19; remark: listed apart in the source
human CD19 [3] = biological target: T1, human CD19; remark: listed apart in the source
human CD19 [4] = biological target: T1, human CD19; remark: listed apart in the source

B1: Molecule G: 2+1 IgG CrossFab, inverted, with charge modifications (VH/VL exchange in CD19 binder, charge modification in CD3 binder, parental murine CD19 … (bispecific antibody)
chain 1: DAVMTQTPLSLPVSLGDQASISCRSSQSLENSNGNTYLNWYLQKPGQSPQLLIYRVSKRFSGVLDRFSGSGSGTDFTLKISRVEAEDLGVYFCLQLTHVPYTFGGGTKLEIKSSASTKGPSVFPLAPSSKSTSGGTAALGCLVKDYFPEPVTVSWNSGALTSGVHTFPAVLQSSGLYSLSSVVTVPSSSLGTQTYICNVNHKPSNTKVDKKVEPKSCDKTHTCPPCPAPEAAGGPSVFLFPPKPKDTLMISRTPEVTCVVVDVSHEDPEVKFNWYVDGVEVHNAKTKPREEQYNSTYRVVSVLTVLHQDWLNGKEYKCKVSNKALGAPIEKTISKAKGQPREPQVCTLPPSRDELTKNQVSLSCAVKGFYPSDIAVEWESNGQPENNYKTTPPVLDSDGSFFLVSKLTVDKSRWQQGNVFSCSVMHEALHNHYTQKSLSLSP
chain 2: not shown
chain 3: EVQLQQSGPELVKPGASVKMACKASGYTFTDYIMHWVKQKTGQGLEWIGYINPYNDGSKYTEKFNGKATLTSDKSSITAYMELSSLTSEDSAVYYCARGTYYYGSALFDYWGQGTTLTVSSASVAAPSVFIFPPSDEQLKSGTASVVCLLNNFYPREAKVQWKVDNALQSGNSQESVTEQDSKDSTYSLSSTLTLSKADYEKHKVYACEVTHQGLSSPVTKSFNRGEC
chain 4: QAVVTQEPSLTVSPGGTVTLTCGSSTGAVTTSNYANWVQEKPGQAFRGLIGGTNKRAPGTPARFSGSLLGGKAALTLSGAQPEDEAEYYCALWYSNLWVFGGGTKLTVLGQPKAAPSVTLFPPSSKKLQANKATLVCLISDFYPGAVTVAWKADSSPVKAGVETTTPSKQSNNKYAASSYLSLTPEQWKSHRSYSCQVTHEGSTVEKTVAPTECS
**Q.** How did the “Tumor cell lysis Z-138 cells (21 h), EC50” value (human CD19 [1]) turn out when B1 was run?
**A.** Its value is 0.57 ng/mL.

**Q.** What about the “Tumor cell lysis Z-138 cells (21 h), EC50 (pM)” value (human CD19 [1]) of the same binder?
**A.** The value was 2.93 pM.

**Q.** And the “T cell activation EC50 upon lysis of Z-138 cells, CD25/CD4” value (human CD19 [2])?
**A.** The value was 1.85 pM.

**Q.** And the “T cell activation EC50 upon lysis of Z-138 cells, CD25/CD8” value (human CD19 [2])?
**A.** Its value is 1.53 pM.

**Q.** And the “T cell activation EC50 upon lysis of Z-138 cells, CD69/CD4” value (human CD19 [2])?
**A.** Its value is roughly 0.75 pM.

**Q.** And the “T cell activation EC50 upon lysis of Z-138 cells, CD69/CD8” value (human CD19 [2])?
**A.** The value was 0.7 pM.

**Q.** What about the “T cell activation EC50 upon lysis of Z-138 cells, CD107/CD4” value (human CD19 [2]) of the same binder?
**A.** Its value is 1.14 pM.

**Q.** What about the “T cell activation EC50 upon lysis of Z-138 cells, CD107/CD8” value (human CD19 [2]) of the same binder?
**A.** The value was 1.13 pM.

B2: Molecule E: 1+1 IgG CrossFab, inverted, without charge modifications (CH1/CL exchange in CD3 binder, parental murine CD19 binder 8B8) (bispecific antibody)
chain 1: not shown
chain 2: QAVVTQEPSLTVSPGGTVTLTCGSSTGAVTTSNYANWVQEKPGQAFRGLIGGTNKRAPGTPARFSGSLLGGKAALTLSGAQPEDEAEYYCALWYSNLWVFGGGTKLTVLSSASTKGPSVFPLAPSSKSTSGGTAALGCLVKDYFPEPVTVSWNSGALTSGVHTFPAVLQSSGLYSLSSVVTVPSSSLGTQTYICNVNHKPSNTKVDKKVEPKSC
chain 3: DAVMTQTPLSLPVSLGDQASISCRSSQSLENSNGNTYLNWYLQKPGQSPQLLIYRVSKRFSGVLDRFSGSGSGTDFTLKISRVEAEDLGVYFCLQLTHVPYTFGGGTKLEIKRTVAAPSVFIFPPSDEQLKSGTASVVCLLNNFYPREAKVQWKVDNALQSGNSQESVTEQDSKDSTYSLSSTLTLSKADYEKHKVYACEVTHQGLSSPVTKSFNRGEC
chain 4: DKTHTCPPCPAPEAAGGPSVFLFPPKPKDTLMISRTPEVTCVVVDVSHEDPEVKFNWYVDGVEVHNAKTKPREEQYNSTYRVVSVLTVLHQDWLNGKEYKCKVSNKALGAPIEKTISKAKGQPREPQVCTLPPSRDELTKNQVSLSCAVKGFYPSDIAVEWESNGQPENNYKTTPPVLDSDGSFFLVSKLTVDKSRWQQGNVFSCSVMHEALHNHYTQKSLSLSP
**Q.** Which results are given for B2?
**A.** Tumor cell lysis Z-138 cells (21 h), EC50 (human CD19 [3]): 0.62 ng/mL; Tumor cell lysis Z-138 cells (21 h), EC50 (pM) (human CD19 [3]): 4.2 pM; T cell activation EC50 upon lysis of Z-138 cells, CD25/CD4 (human CD19 [4]): 3.55 pM; T cell activation EC50 upon lysis of Z-138 cells, CD25/CD8 (human CD19 [4]): 3.31 pM; T cell activation EC50 upon lysis of Z-138 cells, CD69/CD4 (human CD19 [4]): 1.04 pM; T cell activation EC50 upon lysis of Z-138 cells, CD69/CD8 (human CD19 [4]): 1.71 pM; T cell activation EC50 upon lysis of Z-138 cells, CD107/CD4 (human CD19 [4]): 2.09 pM; T cell activation EC50 upon lysis of Z-138 cells, CD107/CD8 (human CD19 [4]): 2.76 pM

B3: Molecule F: 1+1 IgG CrossMab with charge modifications (VH/VL exchange in CD3 binder, charge modification in CD19 binder, parental murine CD19 binder 8B8) (bispecific antibody)
chain 1: EVQLQQSGPELVKPGASVKMACKASGYTFTDYIMHWVKQKTGQGLEWIGYINPYNDGSKYTEKFNGKATLTSDKSSITAYMELSSLTSEDSAVYYCARGTYYYGSALFDYWGQGTTLTVSSASTKGPSVFPLAPSSKSTSGGTAALGCLVEDYFPEPVTVSWNSGALTSGVHTFPAVLQSSGLYSLSSVVTVPSSSLGTQTYICNVNHKPSNTKVDEKVEPKSCDKTHTCPPCPAPEAAGGPSVFLFPPKPKDTLMISRTPEVTCVVVDVSHEDPEVKFNWYVDGVEVHNAKTKPREEQYNSTYRVVSVLTVLHQDWLNGKEYKCKVSNKALGAPIEKTISKAKGQPREPQVCTLPPSRDELTKNQVSLSCAVKGFYPSDIAVEWESNGQPENNYKTTPPVLDSDGSFFLVSKLTVDKSRWQQGNVFSCSVMHEALHNHYTQKSLSLSP
chain 2: EVQLLESGGGLVQPGGSLRLSCAASGFTFSTYAMNWVRQAPGKGLEWVSRIRSKYNNYATYYADSVKGRFTISRDDSKNTLYLQMNSLRAEDTAVYYCVRHGNFGNSYVSWFAYWGQGTLVTVSSASVAAPSVFIFPPSDEQLKSGTASVVCLLNNFYPREAKVQWKVDNALQSGNSQESVTEQDSKDSTYSLSSTLTLSKADYEKHKVYACEVTHQGLSSPVTKSFNRGEC
chain 3: DAVMTQTPLSLPVSLGDQASISCRSSQSLENSNGNTYLNWYLQKPGQSPQLLIYRVSKRFSGVLDRFSGSGSGTDFTLKISRVEAEDLGVYFCLQLTHVPYTFGGGTKLEIKRTVAAPSVFIFPPSDRKLKSGTASVVCLLNNFYPREAKVQWKVDNALQSGNSQESVTEQDSKDSTYSLSSTLTLSKADYEKHKVYACEVTHQGLSSPVTKSFNRGEC
chain 4: not shown
**Q.** Which “Tumor cell lysis Z-138 cells (21 h), EC50” value (human CD19 [3]) does the source give for B3 here?
**A.** Its value is 7.85 ng/mL.

**Q.** And the “Tumor cell lysis Z-138 cells (21 h), EC50 (pM)” value (human CD19 [3])?
**A.** Its value is 53.7 pM.

**Q.** What about the “T cell activation EC50 upon lysis of Z-138 cells, CD25/CD4” value (human CD19 [4]) of the same binder?
**A.** Its value is 10 pM.

**Q.** And the “T cell activation EC50 upon lysis of Z-138 cells, CD25/CD8” value (human CD19 [4])?
**A.** Its value is 6.5 pM.

**Q.** And the “T cell activation EC50 upon lysis of Z-138 cells, CD69/CD4” value (human CD19 [4])?
**A.** Its value is 3.97 pM.

**Q.** And the “T cell activation EC50 upon lysis of Z-138 cells, CD69/CD8” value (human CD19 [4])?
**A.** The value was 2.59 pM.

**Q.** And the “T cell activation EC50 upon lysis of Z-138 cells, CD107/CD4” value (human CD19 [4])?
**A.** Its value is 7.54 pM.

**Q.** What about the “T cell activation EC50 upon lysis of Z-138 cells, CD107/CD8” value (human CD19 [4]) of the same binder?
**A.** The value was 4.02 pM.

B4: Molecule A: 2+1 IgG CrossFab, inverted, with charge modifications (VH/VL exchange in CD3 binder, charge modification in CD19 binder, parental murine CD19 … (bispecific antibody)
chain 1: EVQLQQSGPELVKPGASVKMACKASGYTFTDYIMHWVKQKTGQGLEWIGYINPYNDGSKYTEKFNGKATLTSDKSSITAYMELSSLTSEDSAVYYCARGTYYYGSALFDYWGQGTTLTVSSASTKGPSVFPLAPSSKSTSGGTAALGCLVEDYFPEPVTVSWNSGALTSGVHTFPAVLQSSGLYSLSSVVTVPSSSLGTQTYICNVNHKPSNTKVDEKVEPKSCDKTHTCPPCPAPEAAGGPSVFLFPPKPKDTLMISRTPEVTCVVVDVSHEDPEVKFNWYVDGVEVHNAKTKPREEQYNSTYRVVSVLTVLHQDWLNGKEYKCKVSNKALGAPIEKTISKAKGQPREPQVCTLPPSRDELTKNQVSLSCAVKGFYPSDIAVEWESNGQPENNYKTTPPVLDSDGSFFLVSKLTVDKSRWQQGNVFSCSVMHEALHNHYTQKSLSLSP
chain 2: not shown
chain 3: EVQLLESGGGLVQPGGSLRLSCAASGFTFSTYAMNWVRQAPGKGLEWVSRIRSKYNNYATYYADSVKGRFTISRDDSKNTLYLQMNSLRAEDTAVYYCVRHGNFGNSYVSWFAYWGQGTLVTVSSASVAAPSVFIFPPSDEQLKSGTASVVCLLNNFYPREAKVQWKVDNALQSGNSQESVTEQDSKDSTYSLSSTLTLSKADYEKHKVYACEVTHQGLSSPVTKSFNRGEC
chain 4: DAVMTQTPLSLPVSLGDQASISCRSSQSLENSNGNTYLNWYLQKPGQSPQLLIYRVSKRFSGVLDRFSGSGSGTDFTLKISRVEAEDLGVYFCLQLTHVPYTFGGGTKLEIKRTVAAPSVFIFPPSDRKLKSGTASVVCLLNNFYPREAKVQWKVDNALQSGNSQESVTEQDSKDSTYSLSSTLTLSKADYEKHKVYACEVTHQGLSSPVTKSFNRGEC
**Q.** Which “Tumor cell lysis Z-138 cells (21 h), EC50” value (human CD19 [1]) does the source give for B4 here?
**A.** The value was 0.92 ng/mL.

**Q.** And the “Tumor cell lysis Z-138 cells (21 h), EC50 (pM)” value (human CD19 [1])?
**A.** Its value is roughly 4.7 pM.

**Q.** What about the “T cell activation EC50 upon lysis of Z-138 cells, CD25/CD4” value (human CD19 [2]) of the same binder?
**A.** The value was roughly 4.58 pM.

**Q.** What about the “T cell activation EC50 upon lysis of Z-138 cells, CD25/CD8” value (human CD19 [2]) of the same binder?
**A.** The value was 2.87 pM.

**Q.** What about the “T cell activation EC50 upon lysis of Z-138 cells, CD69/CD4” value (human CD19 [2]) of the same binder?
**A.** The value was 1.41 pM.

**Q.** And the “T cell activation EC50 upon lysis of Z-138 cells, CD69/CD8” value (human CD19 [2])?
**A.** The value was 1.37 pM.

**Q.** And the “T cell activation EC50 upon lysis of Z-138 cells, CD107/CD4” value (human CD19 [2])?
**A.** The value was 2.34 pM.

**Q.** What about the “T cell activation EC50 upon lysis of Z-138 cells, CD107/CD8” value (human CD19 [2]) of the same binder?
**A.** The value was 2 pM.
